Target: His-tagged FRUCTOKINASE6 (FRK6-His) (Arabidopsis thaliana)

- formazan staining of a native PAGE gel (fructokinase enzyme activity staining), 1 μg FRK6-His with 1 μg His-TSF (the His-tagged TSF, not the GST fusion), against FRK6-His alone: 2 fold
Substance: GST-tagged TWIN SISTER OF FT (GST-TSF) (from UniProt Q9S7R5 1-175) (natural protein)

Reference: article PMC5651264
